Among the data in publication PMC4104448 (2014) are Kd values, retold here.

The labels stand for the following.
B1: Biotinylated human β-glucocerebrosidase (residues 40A-536R) (enzyme)
chain: ARPCIPKSFGYSSVVCVCNATYCDSFDPPTFPALGTFSRYESTRSGRRMELSMGPIQANHTGTGLLLTLQPEQKFQKVKGFGGAMTDAAALNILALSPPAQNLLLKSYFSEEGIGYNIIRVPMASCDFSIRTYTYADTPDDFQLHNFSLPEEDTKLKIPLIHRALQLAQRPVSLLASPWTSPTWLKTNGAVNGKGSLKGQPGDIYHQTWARYFVKFLDAYAEHKLQFWAVTAENEPSAGLLSGYPFQCLGFTPEHQRDFIARDLGPTLANSTHHNVRLLMLDDQRLLLPHWAKVVLTDPEAAKYVHGIAVHWYLDFLAPAKATLGETHRLFPNTMLFASEACVGSKFWEQSVRLGSWDRGMQYSHSIITNLLYHVVGWTDWNLALNPEGGPNWVRNFVDSPIIVDITKDTFYKQPMFYHLGHFSKFIPEGSQRVGLVASQKNDLDAVALMHPDGSAVVVVLNRSSKDVPLTIKDPAVGFLETISPGYSIHTYLWRRQ
modifications: biotin (in vivo biotinylated by BirA)

Test [1] deals with T1, H150T mutant LIMP-2 (human, UniProt Q14108 28-432, H150T).
T1 sequence: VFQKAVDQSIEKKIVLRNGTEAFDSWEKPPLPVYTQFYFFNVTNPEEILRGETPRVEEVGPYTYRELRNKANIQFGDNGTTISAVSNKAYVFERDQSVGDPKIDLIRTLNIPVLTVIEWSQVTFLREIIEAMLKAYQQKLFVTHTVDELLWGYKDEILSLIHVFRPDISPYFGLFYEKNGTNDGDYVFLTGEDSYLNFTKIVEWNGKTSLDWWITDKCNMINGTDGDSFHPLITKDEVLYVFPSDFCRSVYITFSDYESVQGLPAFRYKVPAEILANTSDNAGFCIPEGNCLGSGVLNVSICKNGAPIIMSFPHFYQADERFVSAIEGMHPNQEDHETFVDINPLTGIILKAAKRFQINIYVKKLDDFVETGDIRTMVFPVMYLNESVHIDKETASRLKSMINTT
Put plainly: SPR; pH 5.5.

In test [2] the target is T1, H150T mutant LIMP-2. The test can be described thus: SPR; pH 6.5. Background: Surface plasmon resonance follows binding to a sensor surface in real time, without labels.
Test [3] has as its target B1. Put plainly: SPR.
In test [4] the target is B1. Put plainly: SPR; 2 mM M6P.
Test [5] addresses B1. Put plainly: SPR; 2 mM G6P.
Test [6] addresses T2, Biotinylated human CI-MPR domains I-XV (residues 41Q-G2293) (human, UniProt P11717 41-2293, biotin (in vivo biotinylated by BirA)). Put plainly: SPR; 2 mM G6P.
The target of test [7] is B1. Put plainly: SPR; 2 mM mannose.
The target in test [8] is T2, Biotinylated human CI-MPR domains I-XV …. The test can be described thus: SPR; 2 mM mannose.
For test [9] the target is unchanged. The test can be described thus: SPR; with 2 mM mannose.
Test [10] has the same target. Put plainly: SPR; buffer without sugar.
Test [11] deals with B1. Put plainly: SPR; pH 6.5.

T2 sequence (P11717 41-2293): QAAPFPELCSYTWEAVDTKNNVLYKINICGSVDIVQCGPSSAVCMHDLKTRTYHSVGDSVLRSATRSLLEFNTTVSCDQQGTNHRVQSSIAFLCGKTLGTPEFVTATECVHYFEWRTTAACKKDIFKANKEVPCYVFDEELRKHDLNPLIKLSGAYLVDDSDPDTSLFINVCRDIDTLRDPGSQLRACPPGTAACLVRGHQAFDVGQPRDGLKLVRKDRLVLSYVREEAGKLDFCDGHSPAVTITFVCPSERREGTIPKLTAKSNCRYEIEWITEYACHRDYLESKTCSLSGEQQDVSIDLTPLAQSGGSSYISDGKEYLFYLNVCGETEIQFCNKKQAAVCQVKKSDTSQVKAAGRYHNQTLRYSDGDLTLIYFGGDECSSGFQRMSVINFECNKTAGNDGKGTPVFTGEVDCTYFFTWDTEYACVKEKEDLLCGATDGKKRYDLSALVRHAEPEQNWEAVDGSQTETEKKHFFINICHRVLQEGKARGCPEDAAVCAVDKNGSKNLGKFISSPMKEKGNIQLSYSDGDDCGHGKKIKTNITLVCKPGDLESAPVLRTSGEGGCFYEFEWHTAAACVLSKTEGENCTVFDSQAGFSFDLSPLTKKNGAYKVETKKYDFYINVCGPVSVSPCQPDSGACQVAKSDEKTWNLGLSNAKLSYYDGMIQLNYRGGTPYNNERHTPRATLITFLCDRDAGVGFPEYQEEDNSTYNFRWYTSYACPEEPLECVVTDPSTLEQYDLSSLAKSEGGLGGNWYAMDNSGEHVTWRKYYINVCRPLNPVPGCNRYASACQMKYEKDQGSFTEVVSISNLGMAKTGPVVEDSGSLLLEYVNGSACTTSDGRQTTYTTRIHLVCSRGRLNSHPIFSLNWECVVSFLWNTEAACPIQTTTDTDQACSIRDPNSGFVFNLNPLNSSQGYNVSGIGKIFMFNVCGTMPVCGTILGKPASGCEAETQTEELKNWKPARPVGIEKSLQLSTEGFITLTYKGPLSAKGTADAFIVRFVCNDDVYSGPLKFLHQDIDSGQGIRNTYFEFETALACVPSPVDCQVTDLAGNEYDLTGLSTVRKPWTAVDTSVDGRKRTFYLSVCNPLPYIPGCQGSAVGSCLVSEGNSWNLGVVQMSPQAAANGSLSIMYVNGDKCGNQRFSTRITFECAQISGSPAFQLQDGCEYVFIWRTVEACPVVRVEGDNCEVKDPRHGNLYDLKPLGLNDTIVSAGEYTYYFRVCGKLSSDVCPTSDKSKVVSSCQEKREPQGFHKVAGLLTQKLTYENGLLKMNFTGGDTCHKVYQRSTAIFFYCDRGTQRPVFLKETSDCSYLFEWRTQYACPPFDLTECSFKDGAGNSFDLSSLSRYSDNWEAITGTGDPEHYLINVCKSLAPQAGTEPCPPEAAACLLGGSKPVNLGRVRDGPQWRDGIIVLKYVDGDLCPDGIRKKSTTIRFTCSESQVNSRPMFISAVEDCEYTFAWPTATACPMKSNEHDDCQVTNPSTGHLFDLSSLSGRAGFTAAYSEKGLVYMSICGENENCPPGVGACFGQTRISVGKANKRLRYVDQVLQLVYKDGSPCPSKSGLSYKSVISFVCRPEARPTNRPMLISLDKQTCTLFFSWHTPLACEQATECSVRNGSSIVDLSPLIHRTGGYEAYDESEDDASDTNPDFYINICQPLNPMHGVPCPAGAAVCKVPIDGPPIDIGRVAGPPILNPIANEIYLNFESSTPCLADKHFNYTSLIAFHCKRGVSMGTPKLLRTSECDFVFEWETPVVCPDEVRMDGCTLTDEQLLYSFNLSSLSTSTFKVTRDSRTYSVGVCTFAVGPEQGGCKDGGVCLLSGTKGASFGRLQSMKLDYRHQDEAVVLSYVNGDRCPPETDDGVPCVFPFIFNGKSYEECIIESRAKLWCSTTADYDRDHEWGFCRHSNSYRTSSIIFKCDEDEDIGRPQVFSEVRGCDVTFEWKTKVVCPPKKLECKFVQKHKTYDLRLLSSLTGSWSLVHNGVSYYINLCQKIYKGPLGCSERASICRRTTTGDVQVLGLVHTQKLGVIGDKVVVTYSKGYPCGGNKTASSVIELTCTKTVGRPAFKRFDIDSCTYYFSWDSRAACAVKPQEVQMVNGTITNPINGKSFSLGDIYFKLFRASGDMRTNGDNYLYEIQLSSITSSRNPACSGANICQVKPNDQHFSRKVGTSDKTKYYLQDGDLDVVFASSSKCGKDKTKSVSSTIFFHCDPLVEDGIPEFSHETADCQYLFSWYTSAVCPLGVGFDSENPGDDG

Regarding B1, the results for the Kd in [1] and in test [2] were 2.1 µM and 2.3 µM, respectively.

B2: Human LIMP-2 luminal domain (residues 28-431) produced from HEK293T cells, with full glycosylation (domain or fragment)
chain: VFQKAVDQSIEKKIVLRNGTEAFDSWEKPPLPVYTQFYFFNVTNPEEILRGETPRVEEVGPYTYRELRNKANIQFGDNGTTISAVSNKAYVFERDQSVGDPKIDLIRTLNIPVLTVIEWSQVHFLREIIEAMLKAYQQKLFVTHTVDELLWGYKDEILSLIHVFRPDISPYFGLFYEKNGTNDGDYVFLTGEDSYLNFTKIVEWNGKTSLDWWITDKCNMINGTDGDSFHPLITKDEVLYVFPSDFCRSVYITFSDYESVQGLPAFRYKVPAEILANTSDNAGFCIPEGNCLGSGVLNVSICKNGAPIIMSFPHFYQADERFVSAIEGMHPNQEDHETFVDINPLTGIILKAAKRFQINIYVKKLDDFVETGDIRTMVFPVMYLNESVHIDKETASRLKSMINT
modifications: full glycosylation
In the case of B2, the Kd – broadly, the free concentration of one partner at which half of the binding sites on the other are occupied at equilibrium, for simple one-to-one binding – in test [3] was determined as 2.06 µM; in test [4] it was 2.1 µM; in test [5] it was 1.8 µM; in test [6], 1.16 µM; in [7] it was 2.83 µM; in test [8] it was 1.2 µM.

B3: Human LIMP-2 luminal domain (residues 28-431) produced from HEK293S (GnTI-) cells, with limited glycosylation (domain or fragment)
chain: VFQKAVDQSIEKKIVLRNGTEAFDSWEKPPLPVYTQFYFFNVTNPEEILRGETPRVEEVGPYTYRELRNKANIQFGDNGTTISAVSNKAYVFERDQSVGDPKIDLIRTLNIPVLTVIEWSQVHFLREIIEAMLKAYQQKLFVTHTVDELLWGYKDEILSLIHVFRPDISPYFGLFYEKNGTNDGDYVFLTGEDSYLNFTKIVEWNGKTSLDWWITDKCNMINGTDGDSFHPLITKDEVLYVFPSDFCRSVYITFSDYESVQGLPAFRYKVPAEILANTSDNAGFCIPEGNCLGSGVLNVSICKNGAPIIMSFPHFYQADERFVSAIEGMHPNQEDHETFVDINPLTGIILKAAKRFQINIYVKKLDDFVETGDIRTMVFPVMYLNESVHIDKETASRLKSMINT
modifications: N-linked P-Man9GlcNAc2 (with terminal mannose 6-phosphate) at N325; sugars on all nine N-linked glycosylation sites, limited processing
Take B3: the Kd in [9] stood at 1.88 µM; in test [10], 1.8 µM.

B4: Wild-type LIMP-2 (soluble luminal domain; producing cells not stated for the experiment) (domain or fragment)
chain: VFQKAVDQSIEKKIVLRNGTEAFDSWEKPPLPVYTQFYFFNVTNPEEILRGETPRVEEVGPYTYRELRNKANIQFGDNGTTISAVSNKAYVFERDQSVGDPKIDLIRTLNIPVLTVIEWSQVHFLREIIEAMLKAYQQKLFVTHTVDELLWGYKDEILSLIHVFRPDISPYFGLFYEKNGTNDGDYVFLTGEDSYLNFTKIVEWNGKTSLDWWITDKCNMINGTDGDSFHPLITKDEVLYVFPSDFCRSVYITFSDYESVQGLPAFRYKVPAEILANTSDNAGFCIPEGNCLGSGVLNVSICKNGAPIIMSFPHFYQADERFVSAIEGMHPNQEDHETFVDINPLTGIILKAAKRFQINIYVKKLDDFVETGDIRTMVFPVMYLNESVHIDKETASRLKSMINT
Molecule B4 displayed a Kd in test [11] of 1.2 µM.

B5: Human LIMP-2 luminal domain produced from HEK293S (GNTI-) cells and deglycosylated with endoglycosidase F1 (domain or fragment)
chain: VFQKAVDQSIEKKIVLRNGTEAFDSWEKPPLPVYTQFYFFNVTNPEEILRGETPRVEEVGPYTYRELRNKANIQFGDNGTTISAVSNKAYVFERDQSVGDPKIDLIRTLNIPVLTVIEWSQVHFLREIIEAMLKAYQQKLFVTHTVDELLWGYKDEILSLIHVFRPDISPYFGLFYEKNGTNDGDYVFLTGEDSYLNFTKIVEWNGKTSLDWWITDKCNMINGTDGDSFHPLITKDEVLYVFPSDFCRSVYITFSDYESVQGLPAFRYKVPAEILANTSDNAGFCIPEGNCLGSGVLNVSICKNGAPIIMSFPHFYQADERFVSAIEGMHPNQEDHETFVDINPLTGIILKAAKRFQINIYVKKLDDFVETGDIRTMVFPVMYLNESVHIDKETASRLKSMINT
modifications: glycans trimmed to a single N-acetylglucosamine with endoglycosidase F1
Regarding B5, in test [3], the Kd worked out at 3 µM.
